Assay results reported in article PMC11870435 (2025).

Target: H3HK68 full length hemagglutinin WT trimer (A/Hong Kong/1/1968(H3N2)) (Influenza A virus A/Hong …, UniProt Q91MA7)
Experiment: BLI

H3HK68 full length hemagglutinin WT trimer (A/Hong Kong/1/1968(H3N2)), sequence (Q91MA7 17-566, one chain of several): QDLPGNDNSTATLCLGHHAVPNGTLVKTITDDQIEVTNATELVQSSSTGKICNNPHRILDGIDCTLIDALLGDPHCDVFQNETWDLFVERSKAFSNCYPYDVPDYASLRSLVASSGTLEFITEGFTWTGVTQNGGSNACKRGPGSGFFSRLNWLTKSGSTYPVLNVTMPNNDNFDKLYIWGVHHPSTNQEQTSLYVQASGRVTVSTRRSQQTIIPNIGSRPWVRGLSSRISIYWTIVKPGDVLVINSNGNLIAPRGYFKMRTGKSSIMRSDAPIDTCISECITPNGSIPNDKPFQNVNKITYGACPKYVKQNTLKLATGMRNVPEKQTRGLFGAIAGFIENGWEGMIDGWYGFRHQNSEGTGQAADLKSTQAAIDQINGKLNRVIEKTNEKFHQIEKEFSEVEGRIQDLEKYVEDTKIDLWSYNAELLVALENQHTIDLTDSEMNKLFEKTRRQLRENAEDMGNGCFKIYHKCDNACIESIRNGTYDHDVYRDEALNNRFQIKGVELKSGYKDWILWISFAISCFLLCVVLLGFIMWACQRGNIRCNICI

B1: F045-92 IgG (H3 RBS-specific antibody) (antibody, V domains shown)
VH: EVQLVESGAEVKKPGSSVKVSCRASGTFYKYAINWVRQAPGQGLEWMGGIIPFFGTTNYAQKFQGRLTITADGSTNTAYMQLDSLRSEDTAVYYCAGPSITESHYCLDCAAKDYYYGLDVWGQGTTVTVSS
VL: not shown
  Kd: 0.01 µM
